Test results as given in patent US20090324538A1.

Key:
[1] = biological target: heterotrimeric IL-15R (αβγc chains) on CTLL-2 cells (UniProt Q60819); assay: cell-based or functional assay
[2] = biological target: IL-15Rβγc receptors on 32Dβ cells; assay: cell-based or functional assay

UniProt Q60819, sequence (Q60819 33-263, chain 1 of 3): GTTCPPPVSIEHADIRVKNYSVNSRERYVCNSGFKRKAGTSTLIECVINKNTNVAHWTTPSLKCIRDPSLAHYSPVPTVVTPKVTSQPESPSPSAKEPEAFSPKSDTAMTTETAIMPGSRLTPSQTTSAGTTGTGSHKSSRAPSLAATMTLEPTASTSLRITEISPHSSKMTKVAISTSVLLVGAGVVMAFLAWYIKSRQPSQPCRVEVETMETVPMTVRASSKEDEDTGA
UniProt Q60819, sequence (P16297 27-539, chain 2 of 3, further chain): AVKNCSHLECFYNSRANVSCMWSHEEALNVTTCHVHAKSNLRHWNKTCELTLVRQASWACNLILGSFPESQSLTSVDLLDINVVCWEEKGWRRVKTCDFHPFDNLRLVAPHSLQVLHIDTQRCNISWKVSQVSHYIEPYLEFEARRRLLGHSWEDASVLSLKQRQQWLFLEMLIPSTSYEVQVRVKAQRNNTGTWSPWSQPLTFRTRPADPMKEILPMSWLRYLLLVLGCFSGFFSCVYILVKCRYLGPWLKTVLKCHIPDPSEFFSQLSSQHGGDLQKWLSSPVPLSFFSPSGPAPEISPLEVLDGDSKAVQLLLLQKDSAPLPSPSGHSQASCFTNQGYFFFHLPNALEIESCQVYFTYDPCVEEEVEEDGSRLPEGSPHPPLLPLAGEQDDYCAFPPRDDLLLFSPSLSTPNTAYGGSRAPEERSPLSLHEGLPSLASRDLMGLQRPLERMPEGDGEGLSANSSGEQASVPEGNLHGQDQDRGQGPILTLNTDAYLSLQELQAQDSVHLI
UniProt Q60819, sequence (P34902 23-369, chain 3 of 3, further chain): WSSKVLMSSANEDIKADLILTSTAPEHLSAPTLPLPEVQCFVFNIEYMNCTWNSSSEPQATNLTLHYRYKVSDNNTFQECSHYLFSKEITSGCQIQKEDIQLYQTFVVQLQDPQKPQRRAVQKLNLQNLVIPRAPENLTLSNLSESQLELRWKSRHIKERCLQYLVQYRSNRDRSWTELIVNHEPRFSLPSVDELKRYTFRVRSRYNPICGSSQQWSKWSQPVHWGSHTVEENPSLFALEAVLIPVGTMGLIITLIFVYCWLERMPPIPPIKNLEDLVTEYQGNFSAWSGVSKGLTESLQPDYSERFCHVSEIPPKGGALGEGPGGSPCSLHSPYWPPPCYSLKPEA

## c264scTCR/huIL15+c264scTCR/huIL15RαΔE3 fusion protein complex (from UniProt Q13261 31-205)
[1]
  inhibition of c264scTCR/huIL15 stimulatory activity on CTLL-2 proliferation after complex formation: 4 fold

## c264scTCR/huIL15N72D fusion protein (from UniProt P01857 99-113)
[2]
  proliferation of 32Dβ cells (WST-1), lowest concentration with biological activity: 80 pM
